The results in this text go back to publication PMC9352680, “A comprehensive thermodynamic model for RNA binding by the Saccharomyces cerevisiae Pumilio protein PUF4”.

The labels stand for the following.
B1: Ie_S1_P3E.2_K3.1_C3.2_H3.1_[+2CTCTC]_A3.1_F3.1_T3.2 (ssRNA)
RNA: UCUCUUCUUGCUCUCUAUAUAUAUCUCUU
B2: Ie_S1_P3E.2_K3.1_C3.2_H3.1_[+2CCTCT]_A3.1_F3.1_T3.2 (ssRNA)
RNA: UCUCUUCUUGCCUCUUAUAUAUAUCUCUU
B3: Ie_S1_P3E.2_K3.1_C3.2_H3.1_[+2TCC]_A3.1_F3.1_T3.2 (ssRNA)
RNA: UCUCUUCUUGUCCUAUAUAUAUCUCUU
B4: Ie_S1_P3E.2_K3.1_C3.2_H3.1_[+3CTT]_A3.1_F3.1_T3.2 (ssRNA)
RNA: UCUCUUCUUGUCUUAUAUAUAUCUCUU
B5: Ie_S1_P3E.2_K3.1_C3.2_H3.1_[+2T]_A3.1_F3.1_T3.2 (ssRNA)
RNA: UCUCUUCUUGUUAUAUAUAUCUCUU
B6: Ie_S1_P3E.2_K3.1_C3.2_H3.1_[+2TC]_A3.1_F3.1_T3.2 (ssRNA)
RNA: UCUCUUCUUGUCUAUAUAUAUCUCUU
B7: Ie_S1_P3E.2_K3.1_C3.2_H3.1_[+1CCCT]_A3.1_F3.1_T3.2 (ssRNA)
RNA: UCUCUUCUUCCCUGUAUAUAUAUCUCUU
B8: Ie_S1_P3E.2_K3.1_C3.2_H3.1_[+2CCT]_A3.1_F3.1_T3.2 (ssRNA)
RNA: UCUCUUCUUGCCUUAUAUAUAUCUCUU
B9: Ie_S1_P3E.2_K3.1_C3.2_H3.1_[+2TTCC]_A3.1_F3.1_T3.2 (ssRNA)
RNA: UCUCUUCUUGUUCCUAUAUAUAUCUCUU
B10: Ie_S1_P3E.2_K3.1_C3.2_H3.1_[+1CCTC]_A3.1_F3.1_T3.2 (ssRNA)
RNA: UCUCUUCUUCCUCGUAUAUAUAUCUCUU
B11: Ie_S1_P3E.2_K3.1_C3.2_H3.1_[+1TCTCT]_A3.1_F3.1_T3.2 (ssRNA)
RNA: UCUCUUCUUUCUCUGUAUAUAUAUCUCUU
B12: Ie_S1_P3E.2_K3.1_C3.2_H3.1_[+3TCT]_A3.1_F3.1_T3.2 (ssRNA)
RNA: UCUCUUCUUGUUCUAUAUAUAUCUCUU
B13: Ie_S1_P3E.2_K3.1_C3.2_H3.1_[+2TTT]_A3.1_F3.1_T3.2 (ssRNA)
RNA: UCUCUUCUUGUUUUAUAUAUAUCUCUU
B14: Ie_S1_P3E.2_K3.1_C3.2_H3.1_[+1TTCCT]_A3.1_F3.1_T3.2 (ssRNA)
RNA: UCUCUUCUUUUCCUGUAUAUAUAUCUCUU
B15: Ib_S1_P5E.1_K5.1_C5.1_H5.1_A5.1_[T5A]_[A7T]_F5.1_T5.1 (ssRNA)
RNA: UCUCUUUGUAAUUUUAUCUCUU
B16: Ie_S1_P3E.2_K3.1_C3.2_H3.1_[+2CTCT]_A3.1_F3.1_T3.2 (ssRNA)
RNA: UCUCUUCUUGCUCUUAUAUAUAUCUCUU
B17: Ie_S1_P3E.2_K3.1_C3.2_H3.1_[+2CC]_A3.1_F3.1_T3.2 (ssRNA)
RNA: UCUCUUCUUGCCUAUAUAUAUCUCUU
B18: Ie_S1_P3E.2_K3.1_C3.2_H3.1_[+2TCTC]_A3.1_F3.1_T3.2 (ssRNA)
RNA: UCUCUUCUUGUCUCUAUAUAUAUCUCUU
B19: Ie_S1_P3E.2_K3.1_C3.2_H3.1_[+1CTCTC]_A3.1_F3.1_T3.2 (ssRNA)
RNA: UCUCUUCUUCUCUCGUAUAUAUAUCUCUU
B20: Ib_S1_P5E.1_K5.1_C5.1_H5.1_A5.1_[T6G]_[A7G]_F5.1_T5.1 (ssRNA)
RNA: UCUCUUUGUAUGGUUAUCUCUU
B21: Ie_S1_P3E.2_K3.1_C3.2_H3.1_[+1CCTCT]_A3.1_F3.1_T3.2 (ssRNA)
RNA: UCUCUUCUUCCUCUGUAUAUAUAUCUCUU
B22: Ie_S1_P3E.2_K3.1_C3.2_H3.1_[+1TCC]_A3.1_F3.1_T3.2 (ssRNA)
RNA: UCUCUUCUUUCCGUAUAUAUAUCUCUU
B23: Ie_S1_P3E.2_K3.1_C3.2_H3.1_[+2CCCT]_A3.1_F3.1_T3.2 (ssRNA)
RNA: UCUCUUCUUGCCCUUAUAUAUAUCUCUU
B24: Ie_S1_P3E.2_K3.1_C3.2_H3.1_[+1TCTC]_A3.1_F3.1_T3.2 (ssRNA)
RNA: UCUCUUCUUUCUCGUAUAUAUAUCUCUU

This data set addresses T1, PUF4 RNA-binding domain (Saccharomyces cerevisiae, UniProt P25339 537-888).
T1 sequence: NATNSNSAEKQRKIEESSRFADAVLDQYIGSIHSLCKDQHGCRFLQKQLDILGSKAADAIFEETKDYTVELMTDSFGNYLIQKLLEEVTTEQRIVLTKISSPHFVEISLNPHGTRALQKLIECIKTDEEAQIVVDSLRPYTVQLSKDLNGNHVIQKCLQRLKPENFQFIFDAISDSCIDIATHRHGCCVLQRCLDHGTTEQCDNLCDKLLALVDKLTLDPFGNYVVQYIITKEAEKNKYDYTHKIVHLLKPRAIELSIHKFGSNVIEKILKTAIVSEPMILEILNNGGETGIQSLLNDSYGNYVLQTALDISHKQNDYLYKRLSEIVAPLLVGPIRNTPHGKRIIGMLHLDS
Briefly: Mg; RNA-MaP; 20 mM Na-HEPES pH 7.4, 30 mM KOAc, 0.75 mM MgCl2, 0.1% Tween-20, 5% glycerol, 0.1 mg/mL BSA, 2 mM DTT; 25 C; 0.0125-409.6 nM protein. The settings on record: tags: N-His6-TEV cleaved; C-SNAP kept, Cy3B-labelled; label: tethered on chip by stalled RNA polymerase.
For B1, binding was characterised by a dissociation constant (Kd) of 1140 nM. On to B2, for which binding was put at a Kd of 1680 nM. Turning to B3, the Kd is 62.9 nM.

B4 came in with a Kd of 95.5 nM.

Consider B5, for which binding was put at a Kd of 29.7 nM. As to B6, the Kd came out at 844 nM. For the molecule B7, binding was put at a Kd of 4.02 nM. The result for B8 reads 1510 nM; that for B9, 104 nM; that for B10, 475 nM. B11 came in with a Kd of 4.87 nM. B12 came in with a Kd of 53.2 nM. As to B13, the Kd amounted to 27.9 nM. Consider B14, for which binding was characterised by a dissociation constant (Kd) of 5.37 nM. For B15, binding was put at a Kd of 5.31 nM.

Molecule B16 had a Kd of 824 nM. B17: the Kd turned out to be 1170 nM. As to B18, the Kd is 456 nM. Molecule B19 had a Kd of 512 nM. The molecule B20 registered a Kd of 37.1 nM. B21 came in with a Kd of 5.08 nM. Molecule B22 had a Kd of 534 nM. In the case of B23, the Kd stood at 1190 nM. B24 gave a dissociation constant Kd of 261 nM.
